B1: mRNA-splicing (parent)
chain: AGUUGCUGCUGGGAGCUCCAGCACAGUGAAAUGGACAGAAGGGCAGAGCAA

Variants of: B1
Assay: exon inclusion enrichment index; higher = more inclusion; WT1 exon 5 minigene, HEK293

First: AGUUACCACCGGGAGCUCCAGCACGCUGAAAUGGACAGAAGGGCAGAGCAA [G5A U7C G8A U10C A25G G26C]
Second: AGUUACCACCGGGAGCUCCAGCACGUUGAAAUGGACAGAAGGGCAGAGCAA [G5A U7C G8A U10C A25G G26U]
The “exon inclusion enrichment index” value of the first is higher: 3.84 for the first, 3.09 for the second.

Going from AGUUACCACCGGGAGCUCCAGCACUGUGAAAUGGACAGAAGGGCAGAGCAA [G5A U7C G8A U10C A25U] to AGUUACCACCGGGAGCUCCAGCACUAUGAAAUGGACAGAAGGGCAGAGCAA [G5A U7C G8A U10C A25U G26A], the “exon inclusion enrichment index” value falls from 2.57 to 2.39.

Compared with AGUUACCACCGGGAGCUCCAGCACUCUGAAAUGGACAGAAGGGCAGAGCAA [G5A U7C G8A U10C A25U G26C], AGUUACCACCGGGAGCUCCAGCACUUUGAAAUGGACAGAAGGGCAGAGCAA [G5A U7C G8A U10C A25U G26U] is lower in “exon inclusion enrichment index” value: 2.25 for the first, 1.75 for the second.

Going from AGUUACCACCGGGAGCUCCAGCACAGUGCAAUGGACAGAAGGGCAGAGCAA [G5A U7C G8A U10C A29C] to AGUUACCACCGGGAGCUCCAGCACAGUGCCAUGGACAGAAGGGCAGAGCAA [G5A U7C G8A U10C A29C A30C], the “exon inclusion enrichment index” value rises from 2.01 to 2.73.

First: AGUUACCACCGGGAGCUCCAGCACAGUGCGAUGGACAGAAGGGCAGAGCAA [G5A U7C G8A U10C A29C A30G]
Second: AGUUACCACCGGGAGCUCCAGCACAGUGCUAUGGACAGAAGGGCAGAGCAA [G5A U7C G8A U10C A29C A30U]
The “exon inclusion enrichment index” value of the first is higher: 3.21 for the first, 1.35 for the second.

Compared with AGUUACCACCGGGAGCUCCAGCACAGUGGAAUGGACAGAAGGGCAGAGCAA [G5A U7C G8A U10C A29G], AGUUACCACCGGGAGCUCCAGCACAGUGGCAUGGACAGAAGGGCAGAGCAA [G5A U7C G8A U10C A29G A30C] is lower in “exon inclusion enrichment index” value: 3.4 for the first, 1.32 for the second.

Going from AGUUACCACCGGGAGCUCCAGCACAGUGGGAUGGACAGAAGGGCAGAGCAA [G5A U7C G8A U10C A29G A30G] to AGUUACCACCGGGAGCUCCAGCACAGUGGUAUGGACAGAAGGGCAGAGCAA [G5A U7C G8A U10C A29G A30U], the “exon inclusion enrichment index” value falls from 1.92 to 0.757.

Compared with AGUUACCACCGGGAGCUCCAGCACAGUGUAAUGGACAGAAGGGCAGAGCAA [G5A U7C G8A U10C A29U], AGUUACCACCGGGAGCUCCAGCACAGUGUCAUGGACAGAAGGGCAGAGCAA [G5A U7C G8A U10C A29U A30C] is higher in “exon inclusion enrichment index” value: 0.801 for the first, 1.98 for the second.

Going from AGUUACCACCGGGAGCUCCAGCACAGUGUGAUGGACAGAAGGGCAGAGCAA [G5A U7C G8A U10C A29U A30G] to AGUUACCACCGGGAGCUCCAGCACAGUGUUAUGGACAGAAGGGCAGAGCAA [G5A U7C G8A U10C A29U A30U], the “exon inclusion enrichment index” value falls from 2.78 to 0.907.

Compared with AGUUACCACCGGGAGCUCCAGCACAGUGACAUGGACAGAAGGGCAGAGCAA [G5A U7C G8A U10C A30C], AGUUACCACCGGGAGCUCCAGCACAGUGACCUGGACAGAAGGGCAGAGCAA [G5A U7C G8A U10C A30C A31C] is higher in “exon inclusion enrichment index” value: 2.51 for the first, 3.14 for the second.

Going from AGUUACCACCGGGAGCUCCAGCACAGUGACGUGGACAGAAGGGCAGAGCAA [G5A U7C G8A U10C A30C A31G] to AGUUACCACCGGGAGCUCCAGCACAGUGACUUGGACAGAAGGGCAGAGCAA [G5A U7C G8A U10C A30C A31U], the “exon inclusion enrichment index” value falls from 3.4 to 2.21.

Going from AGUUACCACCGGGAGCUCCAGCACAGUGAGAUGGACAGAAGGGCAGAGCAA [G5A U7C G8A U10C A30G] to AGUUACCACCGGGAGCUCCAGCACAGUGAGCUGGACAGAAGGGCAGAGCAA [G5A U7C G8A U10C A30G A31C], the “exon inclusion enrichment index” value falls from 2.36 to 0.305.

First: AGUUACCACCGGGAGCUCCAGCACAGUGAGGUGGACAGAAGGGCAGAGCAA [G5A U7C G8A U10C A30G A31G]
Second: AGUUACCACCGGGAGCUCCAGCACAGUGAGUUGGACAGAAGGGCAGAGCAA [G5A U7C G8A U10C A30G A31U]
The “exon inclusion enrichment index” value of the first is higher: 0.823 for the first, 0.691 for the second.

First: AGUUACCACCGGGAGCUCCAGCACAGUGAUAUGGACAGAAGGGCAGAGCAA [G5A U7C G8A U10C A30U]
Second: AGUUACCACCGGGAGCUCCAGCACAGUGAUCUGGACAGAAGGGCAGAGCAA [G5A U7C G8A U10C A30U A31C]
The “exon inclusion enrichment index” value of the first is lower: 1.71 for the first, 2.13 for the second.

Going from AGUUACCACCGGGAGCUCCAGCACAGUGAUGUGGACAGAAGGGCAGAGCAA [G5A U7C G8A U10C A30U A31G] to AGUUACCACCGGGAGCUCCAGCACAGUGAUUUGGACAGAAGGGCAGAGCAA [G5A U7C G8A U10C A30U A31U], the “exon inclusion enrichment index” value falls from 2.36 to 1.86.

Going from AGUUACCACCGGGAGCUCCAGCACAGUGAACUGGACAGAAGGGCAGAGCAA [G5A U7C G8A U10C A31C] to AGUUACCACCGGGAGCUCCAGCACAGUGAACAGGACAGAAGGGCAGAGCAA [G5A U7C G8A U10C A31C U32A], the “exon inclusion enrichment index” value falls from 2.89 to 1.81.

Compared with AGUUACCACCGGGAGCUCCAGCACAGUGAACCGGACAGAAGGGCAGAGCAA [G5A U7C G8A U10C A31C U32C], AGUUACCACCGGGAGCUCCAGCACAGUGAACGGGACAGAAGGGCAGAGCAA [G5A U7C G8A U10C A31C U32G] is lower in “exon inclusion enrichment index” value: 3.58 for the first, 2.85 for the second.

Compared with AGUUACCACCGGGAGCUCCAGCACAGUGAAGUGGACAGAAGGGCAGAGCAA [G5A U7C G8A U10C A31G], AGUUACCACCGGGAGCUCCAGCACAGUGAAGAGGACAGAAGGGCAGAGCAA [G5A U7C G8A U10C A31G U32A] is higher in “exon inclusion enrichment index” value: 2.95 for the first, 4.37 for the second.

Compared with AGUUACCACCGGGAGCUCCAGCACAGUGAAGCGGACAGAAGGGCAGAGCAA [G5A U7C G8A U10C A31G U32C], AGUUACCACCGGGAGCUCCAGCACAGUGAAGGGGACAGAAGGGCAGAGCAA [G5A U7C G8A U10C A31G U32G] is lower in “exon inclusion enrichment index” value: 4.44 for the first, 1.52 for the second.

Going from AGUUACCACCGGGAGCUCCAGCACAGUGAAUUGGACAGAAGGGCAGAGCAA [G5A U7C G8A U10C A31U] to AGUUACCACCGGGAGCUCCAGCACAGUGAAUAGGACAGAAGGGCAGAGCAA [G5A U7C G8A U10C A31U U32A], the “exon inclusion enrichment index” value falls from 2.07 to 0.229.

Compared with AGUUACCACCGGGAGCUCCAGCACAGUGAAUCGGACAGAAGGGCAGAGCAA [G5A U7C G8A U10C A31U U32C], AGUUACCACCGGGAGCUCCAGCACAGUGAAUGGGACAGAAGGGCAGAGCAA [G5A U7C G8A U10C A31U U32G] is lower in “exon inclusion enrichment index” value: 3.11 for the first, 1.32 for the second.

Compared with AGUUACCACCGGGAGCUCCAGCACAGUGAAAUGGCCAGAAGGGCAGAGCAA [G5A U7C G8A U10C A35C], AGUUACCACCGGGAGCUCCAGCACAGUGAAAUGGCAAGAAGGGCAGAGCAA [G5A U7C G8A U10C A35C C36A] is higher in “exon inclusion enrichment index” value: 0.917 for the first, 1.46 for the second.

First: AGUUACCACCGGGAGCUCCAGCACAGUGAAAUGGCGAGAAGGGCAGAGCAA [G5A U7C G8A U10C A35C C36G]
Second: AGUUACCACCGGGAGCUCCAGCACAGUGAAAUGGCUAGAAGGGCAGAGCAA [G5A U7C G8A U10C A35C C36U]
The “exon inclusion enrichment index” value of the first is higher: 2.06 for the first, 0.244 for the second.

Going from AGUUACCACCGGGAGCUCCAGCACAGUGAAAUGGGCAGAAGGGCAGAGCAA [G5A U7C G8A U10C A35G] to AGUUACCACCGGGAGCUCCAGCACAGUGAAAUGGGAAGAAGGGCAGAGCAA [G5A U7C G8A U10C A35G C36A], the “exon inclusion enrichment index” value rises from 0.89 to 1.29.

Going from AGUUACCACCGGGAGCUCCAGCACAGUGAAAUGGGGAGAAGGGCAGAGCAA [G5A U7C G8A U10C A35G C36G] to AGUUACCACCGGGAGCUCCAGCACAGUGAAAUGGGUAGAAGGGCAGAGCAA [G5A U7C G8A U10C A35G C36U], the “exon inclusion enrichment index” value falls from 0.306 to 0.025.

In the case of AGUUACCACCGGGAGCUCCAGCACAGUGAAAUGGUCAGAAGGGCAGAGCAA [G5A U7C G8A U10C A35U], the “exon inclusion enrichment index” value is reported as 0.475.

— the RNAGym collection of RNA variant scans (doi:10.1101/gr.219683.116)
